Results reported in article PMC2836571 (Nucleic Acids Research, 2009).

Molecular target: the molecule itself
Assay: SEC

B1: ArdB from the E. coli K12 CP4-6 prophage (yafX) (natural protein, E. coli K12/CP4-6 prophage, UniProt P75676 1-152, looked up)
chain: MTTQTQHDLAPANQPEFELTVTPVPDEQRIDFWPQYFGAIPQWLLLEPHIFAWMDRFCEGYSGGIWSFYTLSNGGAFMSPEPDNDETWRLFNCLNGNDAQMSAEAAGIAVCLIAYSHHACRTECDAMTAHYYRLREYAMQHPEAHAILRIID
**Q.** Which “stoichiometry N” value does the source give for B1 here?
**A.** 2
